Here are results for 2 molecules from article doi:10.1101/2025.01.22.634233 (bioRxiv, 2025).

Data set [1] concerns the target T1, biotinylated Avi-BARD1^554-777, wild type (human, UniProt Q99728 554-777, biotinylated by MBP-BirA).
T1 sequence: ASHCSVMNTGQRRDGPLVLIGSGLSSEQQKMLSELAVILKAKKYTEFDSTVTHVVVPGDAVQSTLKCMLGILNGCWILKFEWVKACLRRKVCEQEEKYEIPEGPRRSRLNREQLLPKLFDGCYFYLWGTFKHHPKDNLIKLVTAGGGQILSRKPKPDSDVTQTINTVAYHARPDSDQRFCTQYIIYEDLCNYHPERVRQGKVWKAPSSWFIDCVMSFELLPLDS
The data set is described as follows: BLI. (In general: BLI is a label-free optical method that tracks binding on a fibre tip over time.)

The data set “cross-linking” deals with the molecule itself. Description: cross-linking.

B1: pS5pS7 GST-(CTD)26 (domain or fragment)
chain: not shown
modifications: phosphoserine at S5 and S7 of the CTD heptads (pS5pS7)
Turning to B1, binding in data set [1] was characterised by a dissociation constant (Kd) of 193 nM.

B2: BARD1 BRCT (BARD1^554-777), wild type (domain or fragment)
chain: ASHCSVMNTGQRRDGPLVLIGSGLSSEQQKMLSELAVILKAKKYTEFDSTVTHVVVPGDAVQSTLKCMLGILNGCWILKFEWVKACLRRKVCEQEEKYEIPEGPRRSRLNREQLLPKLFDGCYFYLWGTFKHHPKDNLIKLVTAGGGQILSRKPKPDSDVTQTINTVAYHARPDSDQRFCTQYIIYEDLCNYHPERVRQGKVWKAPSSWFIDCVMSFELLPLDS
Turning to B2, in “cross-linking”, the binding result is recorded as “binds”.
